B1: AAV9-X1.1 (other)
chain: MAADGYLPDWLEDNLSEGIREWWALKPGAPQPKANQQHQDNARGLVLPGYKYLGPGNGLDKGEPVNAADAAALEHDKAYDQQLKAGDNPYLKYNHADAEFQERLKEDTSFGGNLGRAVFQAKKRLLEPLGLVEEAAKTAPGKKRPVEQSPQEPDSSAGIGKSGAQPAKKRLNFGQTGDTESVPDPQPIGEPPAAPSGVGSLTMASGGGAPVADNNEGADGVGSSSGNWHCDSQWLGDRVITTSTRTWALPTYNNHLYKQISNSTSGGSSNDNAYFGYSTPWGYFDFNRFHCHFSPRDWQRLINNNWGFRPKRLNFKLFNIQVKEVTDNNGVKTIANNLTSTVQVFTDSDYQLPYVLGSAHEGCLPPFPADVFMIPQYGYLTLNDGSQAVGRSSFYCLEYFPSQMLRTGNNFQFSYEFENVPFHSSYAHSQSLDRLMNPLIDQYLYYLSRTIDGAATKNQTLKFSVAGPSNMAVQGRNYIPGPSYRQQRVSTTVTQNNNSEFAWPGASSWALNGRNSLMNPGPAMASHKEGEDRFFPLSGSLIFGKQGTGRDNVDADKVMITNEEEIKTTNPVATESYGQVATNHQSAQGNNTRSVAQAQTGWVQNQGILPGMVWQDRDVYLQGPIWAKIPHTDGNFHPSPLMGGFGMKHPPPQILIKNTPVPADPPTAFNKDKLNSFITQYSTGQVSVEIEWELQKENSKRWNPEIQYTSNYYKSNNVEFAVNTEGVYSEPRPIGTRYLTRNL
notes: also called AAV-X1.1; X1B10
B2: AAV.CAP-Mac (other)
chain: MAADGYLPDWLEDNLSEGIREWWALKPGAPQPKANQQHQDNARGLVLPGYKYLGPGNGLDKGEPVNAADAAALEHDKAYDQQLKAGDNPYLKYNHADAEFQERLKEDTSFGGNLGRAVFQAKKRLLEPLGLVEEAAKTAPGKKRPVEQSPQEPDSSAGIGKSGAQPAKKRLNFGQTGDTESVPDPQPIGEPPAAPSGVGSLTMASGGGAPVADNNEGADGVGSSSGNWHCDSQWLGDRVITTSTRTWALPTYNNHLYKQISNSTSGGSSNDNAYFGYSTPWGYFDFNRFHCHFSPRDWQRLINNNWGFRPKRLNFKLFNIQVKEVTDNNGVKTIANNLTSTVQVFTDSDYQLPYVLGSAHEGCLPPFPADVFMIPQYGYLTLNDGSQAVGRSSFYCLEYFPSQMLRTGNNFQFSYEFENVPFHSSYAHSQSLDRLMNPLIDQYLYYLSRTINGSGQNQQTLKFSVAGPSNMAVQGRNYIPGPSYRQQRVSTTVTQNNNSEFAWPGASSWALNGRNSLMNPGPAMASHKEGEDRFFPLSGSLIFGKQGTGRDNVDADKVMITNEEEIKTTNPVATESYGQVATNHQSAQLNTTKPIAQAQTGWVQNQGILPGMVWQDRDVYLQGPIWAKIPHTDGNFHPSPLMGGFGMKHPPPQILIKNTPVPADPPTAFNKDKLNSFITQYSTGQVSVEIEWELQKENSKRWNPEIQYTSNYYKSNNVEFAVNTEGVYSEPRPIGTRYLTRNL
notes: also called CAP-C1

How the values were obtained:
[1] = biological target: T1, Mouse SCA1 (LY6A), on cells (mouse, UniProt P05533 27-112); experiment: cell microarray, individual capsids, anti-AAV9 detection
T1 construct: whole, on cells; also called mouse LY6A
T1 sequence: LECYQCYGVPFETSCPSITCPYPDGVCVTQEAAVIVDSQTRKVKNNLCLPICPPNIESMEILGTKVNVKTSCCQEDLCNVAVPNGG

[2] = biological target: T2, human LRP6 extracellular domain (AA 20-1368) tagged with Fc (human IgG1) (human, UniProt O75581 20-1368); experiment: validated interaction (cell culture potency assay and/or SPR)
T2 construct: also called human LRP6-Fc; complete human LRP6 extracellular domain; not shown: human IgG1 Fc
T2 sequence: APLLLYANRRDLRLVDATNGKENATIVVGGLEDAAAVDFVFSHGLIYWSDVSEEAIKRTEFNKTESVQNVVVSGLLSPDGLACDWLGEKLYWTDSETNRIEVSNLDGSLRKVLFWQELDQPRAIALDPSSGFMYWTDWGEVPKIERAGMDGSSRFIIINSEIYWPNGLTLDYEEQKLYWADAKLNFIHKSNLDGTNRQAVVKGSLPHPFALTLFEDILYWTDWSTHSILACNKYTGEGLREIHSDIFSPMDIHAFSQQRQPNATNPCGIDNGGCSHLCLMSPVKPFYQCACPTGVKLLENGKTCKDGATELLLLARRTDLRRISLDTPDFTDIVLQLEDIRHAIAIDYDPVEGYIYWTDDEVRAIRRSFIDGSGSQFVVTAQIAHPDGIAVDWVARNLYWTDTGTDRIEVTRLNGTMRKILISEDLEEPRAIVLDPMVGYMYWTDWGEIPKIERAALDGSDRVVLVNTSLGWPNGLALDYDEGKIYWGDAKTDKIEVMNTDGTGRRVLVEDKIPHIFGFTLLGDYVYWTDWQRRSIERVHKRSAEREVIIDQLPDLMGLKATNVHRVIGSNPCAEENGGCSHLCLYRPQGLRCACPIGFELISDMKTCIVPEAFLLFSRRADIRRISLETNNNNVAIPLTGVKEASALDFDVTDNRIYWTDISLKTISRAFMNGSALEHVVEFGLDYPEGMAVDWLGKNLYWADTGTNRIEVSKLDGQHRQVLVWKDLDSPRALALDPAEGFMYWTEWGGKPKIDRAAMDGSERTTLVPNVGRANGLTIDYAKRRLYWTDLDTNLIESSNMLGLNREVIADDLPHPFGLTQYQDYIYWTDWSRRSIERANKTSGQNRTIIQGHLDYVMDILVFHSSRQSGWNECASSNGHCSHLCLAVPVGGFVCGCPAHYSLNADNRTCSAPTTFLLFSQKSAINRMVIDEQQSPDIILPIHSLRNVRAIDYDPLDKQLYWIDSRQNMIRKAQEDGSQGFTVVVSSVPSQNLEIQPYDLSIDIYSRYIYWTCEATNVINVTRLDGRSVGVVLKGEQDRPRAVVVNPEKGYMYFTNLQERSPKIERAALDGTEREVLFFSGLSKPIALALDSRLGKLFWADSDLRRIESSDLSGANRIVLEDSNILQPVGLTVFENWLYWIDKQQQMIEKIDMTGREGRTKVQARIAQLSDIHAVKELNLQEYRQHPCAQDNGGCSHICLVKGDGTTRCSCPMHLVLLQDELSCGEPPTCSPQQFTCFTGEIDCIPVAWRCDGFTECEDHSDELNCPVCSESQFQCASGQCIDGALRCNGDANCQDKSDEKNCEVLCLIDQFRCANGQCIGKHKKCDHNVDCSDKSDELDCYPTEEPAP

[3] = biological target: T3, mouse LRP6 extracellular domain (AA20-1366) tagged with 6×His tag (mouse, UniProt O88572 20-1366); experiment: pull-down, His-tagged bait on Ni-NTA, AAV prey, Western blot (FIG. 21)
T3 construct: also called full length extracellular domain of mouse LRP6
T3 sequence: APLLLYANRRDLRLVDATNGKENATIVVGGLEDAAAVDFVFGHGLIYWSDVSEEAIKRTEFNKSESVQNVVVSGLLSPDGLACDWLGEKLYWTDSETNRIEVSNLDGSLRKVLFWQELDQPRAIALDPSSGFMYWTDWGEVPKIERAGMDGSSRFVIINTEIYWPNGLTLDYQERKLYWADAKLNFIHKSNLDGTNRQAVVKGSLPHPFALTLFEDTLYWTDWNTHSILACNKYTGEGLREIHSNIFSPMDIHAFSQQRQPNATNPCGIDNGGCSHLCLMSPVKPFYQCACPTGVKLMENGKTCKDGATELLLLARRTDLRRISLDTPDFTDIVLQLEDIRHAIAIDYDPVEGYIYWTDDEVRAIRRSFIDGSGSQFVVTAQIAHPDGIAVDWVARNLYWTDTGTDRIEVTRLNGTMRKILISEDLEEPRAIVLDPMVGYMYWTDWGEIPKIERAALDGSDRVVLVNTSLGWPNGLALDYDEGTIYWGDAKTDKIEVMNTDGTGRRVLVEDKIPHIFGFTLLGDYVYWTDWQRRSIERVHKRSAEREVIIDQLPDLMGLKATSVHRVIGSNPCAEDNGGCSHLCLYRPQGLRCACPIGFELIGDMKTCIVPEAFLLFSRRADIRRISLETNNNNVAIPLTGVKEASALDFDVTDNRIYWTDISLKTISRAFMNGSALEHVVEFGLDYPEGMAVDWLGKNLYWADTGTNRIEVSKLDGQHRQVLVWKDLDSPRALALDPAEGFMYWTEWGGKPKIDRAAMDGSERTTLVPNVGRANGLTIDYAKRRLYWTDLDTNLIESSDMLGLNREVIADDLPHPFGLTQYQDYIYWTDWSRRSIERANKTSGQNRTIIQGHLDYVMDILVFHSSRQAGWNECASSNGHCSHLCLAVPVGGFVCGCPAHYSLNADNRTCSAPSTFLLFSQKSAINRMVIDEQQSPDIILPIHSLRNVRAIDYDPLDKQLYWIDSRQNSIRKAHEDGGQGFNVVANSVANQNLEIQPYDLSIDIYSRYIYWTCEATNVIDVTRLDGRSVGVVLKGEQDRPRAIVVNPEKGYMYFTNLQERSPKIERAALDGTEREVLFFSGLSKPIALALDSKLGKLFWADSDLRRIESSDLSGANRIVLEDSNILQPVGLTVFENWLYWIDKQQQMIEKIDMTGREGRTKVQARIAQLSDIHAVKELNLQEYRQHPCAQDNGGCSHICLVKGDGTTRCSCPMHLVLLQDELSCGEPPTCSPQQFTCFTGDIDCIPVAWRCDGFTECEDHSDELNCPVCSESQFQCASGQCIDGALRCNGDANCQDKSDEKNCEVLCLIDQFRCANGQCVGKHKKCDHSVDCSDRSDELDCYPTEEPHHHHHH

Row | Binder | binding result [1] | binding result [2] | binding result [3]
1 | B1 | no binding | binds | binds
2 | B2 | no binding | binds | binds

Reference: US20240139329A1 (CALIFORNIA INSTITUTE OF TECHNOLOGY, published 2024)
